This is an account of results in paper PMC8336524, “Yeast Bromodomain Factor 1 and Its Human Homolog TAF1 Play Conserved Roles in Promoting Homologous Recombination” (Advanced Science, 2021).

A word on the Kd: it is the equilibrium constant for the complex coming apart. A low value points to tighter binding.

In experiment [1] the target is acetylated H4 peptide (1–22 aa) (UniProt P02309). In words: ITC; protein (≈50 µM DBD or 2YF‐DBD, ≈20 µM TAF1‐DBD) titrated with H4 peptide (≈1 mM or 0.5 mM) at 25 °C; 100 mM NaCl, 50 mM Tris‐HCl pH 7.5; 19 injections; One Set of Sites model.
For the next experiment, the target named is T1, 6xHis‐Rfa1 (yeast, UniProt P22336 1-621).
T1 construct: Rfa1, subunit of Replication Protein A (RPA), yeast; also called RPA (in the text on the truncations); source: E. coli (BL21), pET30a(+)
In words: pull-down; GST or GST fusion proteins immobilized on GSH‐sepharose beads, incubated with His‐tagged proteins at 4 °C for 4 h; wash 20 mM Tris–HCl pH 7.4, 200 mM NaCl, 0.5 mM EDTA; Western blot with anti‐His antibody. As to conditions: both partners purified. A general note: A western blot detects proteins with antibodies after separation by electrophoresis.

T1 sequence (P22336 whole entry, the tested form may be a part): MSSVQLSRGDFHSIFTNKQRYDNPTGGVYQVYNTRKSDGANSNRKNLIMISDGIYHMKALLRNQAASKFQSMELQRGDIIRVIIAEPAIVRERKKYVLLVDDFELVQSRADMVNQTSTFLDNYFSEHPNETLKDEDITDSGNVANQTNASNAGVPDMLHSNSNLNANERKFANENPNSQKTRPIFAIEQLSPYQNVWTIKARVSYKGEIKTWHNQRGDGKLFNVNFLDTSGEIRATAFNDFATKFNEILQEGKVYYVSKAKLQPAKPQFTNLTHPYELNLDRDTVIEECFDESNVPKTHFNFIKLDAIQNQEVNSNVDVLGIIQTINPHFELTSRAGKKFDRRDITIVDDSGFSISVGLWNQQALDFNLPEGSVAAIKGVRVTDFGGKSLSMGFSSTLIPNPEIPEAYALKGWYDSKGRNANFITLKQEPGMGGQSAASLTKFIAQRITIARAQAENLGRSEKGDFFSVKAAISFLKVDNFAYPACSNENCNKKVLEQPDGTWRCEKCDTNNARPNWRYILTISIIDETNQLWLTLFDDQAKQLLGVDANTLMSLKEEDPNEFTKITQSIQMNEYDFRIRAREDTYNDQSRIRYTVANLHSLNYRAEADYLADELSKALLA

The molecule “TAF1‐DBD used for ITC (domain or fragment)” came in with a Kd in experiment [1] of 5 µM. Still for that read-out and setting: next, “DBD of Bdf1 used for ITC (domain or fragment)”: 6 µM.

B1: GST‐Bdf1 residues 1–317 (domain or fragment, yeast, UniProt P35817 1-317, looked up)
chain: MTDITPVQNDVDVNGNNVNDDVSSNLKRPIDQGDPSNGLAEEENPANNQLHLKKARLDGDALTSSPAGLAENGIEGATLAANGENGYNATGSGAEDEQQGLKKEEGGQGTKQEDLDENSKQELPMEVPKEPAPAPPPEPDMNNLPQNPIPKHQQKHALLAIKAVKRLKDARPFLQPVDPVKLDIPFYFNYIKRPMDLSTIERKLNVGAYEVPEQITEDFNLMVNNSIKFNGPNAGISQMARNIQASFEKHMLNMPAKDAPPVIAKGRRSSAQEDAPIVIRRAQTHNGRPKRTIHPPKSKDIYPYESKKPKSKRLQQA
notes: source: E. coli (BL21), pGEX4T3; immobilized onto GSH‐sepharose beads
With B1, the binding result with 6xHis‐Rfa1 is “binds”.

B2: GST‐Bdf1 residues 1–295 (domain or fragment, yeast, UniProt P35817 1-295, looked up)
chain: MTDITPVQNDVDVNGNNVNDDVSSNLKRPIDQGDPSNGLAEEENPANNQLHLKKARLDGDALTSSPAGLAENGIEGATLAANGENGYNATGSGAEDEQQGLKKEEGGQGTKQEDLDENSKQELPMEVPKEPAPAPPPEPDMNNLPQNPIPKHQQKHALLAIKAVKRLKDARPFLQPVDPVKLDIPFYFNYIKRPMDLSTIERKLNVGAYEVPEQITEDFNLMVNNSIKFNGPNAGISQMARNIQASFEKHMLNMPAKDAPPVIAKGRRSSAQEDAPIVIRRAQTHNGRPKRTIHP
notes: as for B1
In the case of B2, the binding result with 6xHis‐Rfa1 is on record as “binds”.
